Target: the molecule itself
Test: cryo-EM structure

B1: Cps25 (natural protein, Saccharomyces cerevisiae, UniProt Q03323 1-175, looked up)
chain: MNESENSPQHNEVTVPMVEDTSSNADIPMEQIQREDNKNYDKHDNECFDMNGNHNNNSDNLQFDSVPSSATKDLKNIKSVTNQNVKIEESSSTNSVIEESSEPKISKLENVNLAATVGGSQTRKYLNTNVTPHLLAGMRLIAVQQPEDPLRVLGEYLIEQSNILKSGEKESNASK
Q: Does B1 bind?
A: binds
